{
  "source": "paper PMC12704549",
  "origin": "cited, not measured here",
  "biological_target": "pro-IL-18 (Homo sapiens) (UniProt Q14116)",
  "sequence (Q14116 37-193)": "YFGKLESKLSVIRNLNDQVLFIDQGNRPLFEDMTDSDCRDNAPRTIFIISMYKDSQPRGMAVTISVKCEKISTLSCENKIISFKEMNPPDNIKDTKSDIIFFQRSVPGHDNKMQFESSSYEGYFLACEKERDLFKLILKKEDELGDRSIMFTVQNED",
  "data": [
    {"substance": "caspase-4 (from UniProt P49662)", "values": [
      {"measurement": "Kd", "result": 0.29, "unit": "µM"}
    ]}
  ]
}
